Measured values as given in patent publication US20170240651A1 (Sanofi, published 2017).

T1: human anterior gradient protein 2 (AGR2) (human, UniProt O95994 21-175)
T1 chain: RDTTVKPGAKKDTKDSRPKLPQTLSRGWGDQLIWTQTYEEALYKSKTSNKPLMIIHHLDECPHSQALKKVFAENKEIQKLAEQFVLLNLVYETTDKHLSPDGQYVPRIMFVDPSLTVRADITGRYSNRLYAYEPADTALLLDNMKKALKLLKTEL

T2: AGR2 deletion mutant lacking the epitope … (UniProt O95994 21-175)
T2 construct: Made from the pcDNA3-AGR2-His eukaryotic expression plasmid by deletion mutagenesis; also called the mutated AGR2 protein; not shown: His tag of the pcDNA3-AGR2-His plasmid
T2 sequence (looked up): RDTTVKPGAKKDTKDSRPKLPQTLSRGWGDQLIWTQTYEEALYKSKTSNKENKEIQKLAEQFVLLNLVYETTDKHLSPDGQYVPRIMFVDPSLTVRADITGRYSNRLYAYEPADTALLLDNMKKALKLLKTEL

T3: human anterior gradient protein 2 (AGR2) (human, UniProt O95994 21-175, limits assumed)
T3 construct: also called hAG-2; antigen AGR2
T3 sequence (looked up): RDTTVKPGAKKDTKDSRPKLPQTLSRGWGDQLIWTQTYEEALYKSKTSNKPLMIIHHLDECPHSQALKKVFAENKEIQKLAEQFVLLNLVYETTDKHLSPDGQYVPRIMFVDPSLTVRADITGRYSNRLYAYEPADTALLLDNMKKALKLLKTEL


Assays:
[1] = target: T1, human anterior gradient protein 2 (AGR2); experiment: competitive ELISA
[2] = target: T2, AGR2 deletion mutant lacking the …; experiment: western blot
Protocol: The amino sequence of the monoclonal antibody corresponding to the epitopes of the antigen AGR2 was determined (see FIG. 23). The procedure was as followed: RNA was extracted from MCF cells. mRNA of AGR2 was obtained by PCR and reverse transcribed to obtain cDNA. The pcDNA3-AGR2-His eukaryotic expression plasmid was constructed and AGR2 was subjected to mutation by deletion. The upstream primer for the mutation was 5′-[…]-3′, and the downstream primer was 5′-[…]-3′. Such a mutation led to the deletion of the epitope […]. […] Then AGR2 was subjected to point mutation. The upstream primer for the mutation was 5′-[…]-3′, and the downstream primer was 5′-[…]-3′, wherein the “C” in the PDI active site “CXXS” was mutate to “S”. […] It was determined that the monoclonal antibody specifically bound to the epitope “[…]”, and may inhibit the PDI activity.

[3] = target: T3, human anterior gradient protein 2 (AGR2); experiment: competitive ELISA, AGR2 coated, antibody pre-incubated with soluble antigen
Protocol: The generated humanized antibody 18A4Hu1 was subjected to an affinity analysis and compared with the murine 18A4 antibody. Specifically, 3 ng/μl antigen AGR2 was used for coating the 96 well ELISA plates at 100 μl per well and blocked with blocking solution. Antibodies at 0.1 ng/μl were mixed 1:1 with antigens of different concentrations and incubated at 37° C. overnight, wherein the antigen concentration was serially diluted from 1000 nM. 100 μl incubated mixture was separately added into different ELISA plates and incubated at 37° C. for 1 hour. After washing the ELISA plates, the HRP-labeled secondary antibodies against human or mouse were added and incubated at 37° C. for 1 hour. Color development solutions A and B were added, each at 80 μl, and color was allowed to develop at 37° C. for 30 min. The reaction was stopped by adding 50 μl stopping solution and absorbance was determined at OD 450. Affinity plate was depicted and the affinities of the antibodies were calculated.

Binder	Kd [1]	binding result [2]	binding result [3]
murine anti-human AGR2 protein monoclonal antibody 18A4 (antibody, V domains shown, also called murine 18A4; the monoclonal antibody) VH: EVQLQQFGAELVKPGASVKISCKASAYTFTDYNMDWVKQSHGKSLEWIGDINPNYDTTSYNQKFKGKATLTVDKSSSTAYMELRSLTSEDTAVYYCARSMMGYGSPMDYWGQGTSVTVSS VL: DIVLTQSPASLTVSLGQRATISCRASKSVSTSGYSYMHWYQRKPGQPPKLLIYLASNLESGVPARFSGSGSGTDFTLNIHPVEGEDAATYYCQHIRELPRTFGGGTKLEIK	1.7 nM	no binding	–
humanized antibody 18A4Hu1 (antibody, V domains shown) VH: QVQLVQSGAEVKKPGASVKVSCKASGYTFTDYNMDWVRQAPGQGLEWIGDINPNYDTTSYNQKFKGKATLTVDKSTSTAYMELSSLRSEDTAVYYCARSMMGYGSPMDYWGQGTLVTVSS VL: EIVLTQSPATLSLSPGERATLSCRASKSVSTSGYSYMHWYQQKPGQAPRLLIYLASNLESGIPARFSGSGSGTDFTLTISRLEPEDFAVYYCQHIRELPRTFGGGTKLEIK	3.02 nM	–	binds
